Measured values from article PMC3936261.
Where two headings read alike, the source gives them in different places.

Key:
Assay in all cases: other fluorescence titration
[1] = biological target: Prdx1 protein labeled with Alexa Fluor 546 (UniProt Q06830)
[2] = biological target: Prdx1 protein labeled with Alexa Fluor 546 (UniProt Q06830); remark: listed apart in the source
[3] = biological target: Prdx1 protein labeled with Alexa Fluor 546 (UniProt Q06830); remark: listed apart in the source

Chain of Prdx1 protein labeled with Alexa Fluor 546 (Q06830 whole entry): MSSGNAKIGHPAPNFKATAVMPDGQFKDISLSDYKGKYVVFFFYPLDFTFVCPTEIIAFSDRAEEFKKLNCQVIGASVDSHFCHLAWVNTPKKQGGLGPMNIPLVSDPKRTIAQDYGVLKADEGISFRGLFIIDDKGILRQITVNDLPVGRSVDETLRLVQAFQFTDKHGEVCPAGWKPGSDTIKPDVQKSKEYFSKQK

Question: How did the Kd [1] turn out when “MKP-1 protein labeled with QSY 35 (from UniProt P28562 1-367) (enzyme)” was run?
Answer: The Kd was 0.261 µM.

Question: What about the Kd [2] of the same substance?
Answer: Its Kd is 0.21 µM.

Question: And the Kd [3]?
Answer: The Kd was 0.215 µM.
